Laboratory results: publication PMC12084805
Where two headings read alike, the source gives them in different places.

T1: POT-2 (Caenorhabditis elegans, UniProt O45595 1-251)
T1 sequence: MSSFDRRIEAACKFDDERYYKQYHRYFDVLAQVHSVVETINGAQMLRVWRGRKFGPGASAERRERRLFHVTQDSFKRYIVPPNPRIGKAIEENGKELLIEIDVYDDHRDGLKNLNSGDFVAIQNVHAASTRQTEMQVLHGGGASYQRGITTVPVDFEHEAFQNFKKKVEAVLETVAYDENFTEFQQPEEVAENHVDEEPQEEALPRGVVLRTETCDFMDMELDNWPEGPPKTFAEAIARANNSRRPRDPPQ

T2: POT-3 (Caenorhabditis elegans, UniProt G5EFG7 1-215)
T2 sequence: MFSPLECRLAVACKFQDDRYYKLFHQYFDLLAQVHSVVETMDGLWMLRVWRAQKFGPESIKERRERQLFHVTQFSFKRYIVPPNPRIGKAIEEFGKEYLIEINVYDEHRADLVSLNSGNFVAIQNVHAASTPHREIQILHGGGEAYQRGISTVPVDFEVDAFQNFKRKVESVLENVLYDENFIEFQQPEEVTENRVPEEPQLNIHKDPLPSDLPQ


Experiments:
Assay in all cases: EMSA
[1] = target: T1, POT-2
[2] = target: T2, POT-3
[3] = target: T1, POT-2; remark: listed apart in the source
[4] = target: T2, POT-3; remark: listed apart in the source

Row | Binder | binding result [1] | binding result [2] | binding result [3] | binding result [4]
1 | TTAGGTTTAGGT (ssDNA) [ss (TTAGGT)2] | no binding | no binding | – | –
2 | TTAGGCTTAGGC (ssDNA) [ss (TTAGGC)2] | – | – | binds | binds
3 | TTAGACTTAGAC (ssDNA) [ss (TTAGAC)2] | no binding | no binding | – | –
